These results are taken from article PMC4856986.

Data set [1] has as its target T1, SOX18-HMG (79 aa) (Mus musculus, UniProt P43680 77-155). Nature of the data set: ITC.
For a further data set, the target named is T2, BRN2-POU (mouse, UniProt P31360 264-415).
T2 sequence: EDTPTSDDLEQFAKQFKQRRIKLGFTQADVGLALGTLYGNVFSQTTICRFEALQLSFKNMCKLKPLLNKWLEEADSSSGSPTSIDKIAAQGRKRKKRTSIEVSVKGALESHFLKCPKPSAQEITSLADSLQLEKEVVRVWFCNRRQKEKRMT
As to the kind of experiment: EMSA.

Data set [2] has as its target T3, OCT6-POU (mouse, UniProt P21952 245-396).
T3 sequence: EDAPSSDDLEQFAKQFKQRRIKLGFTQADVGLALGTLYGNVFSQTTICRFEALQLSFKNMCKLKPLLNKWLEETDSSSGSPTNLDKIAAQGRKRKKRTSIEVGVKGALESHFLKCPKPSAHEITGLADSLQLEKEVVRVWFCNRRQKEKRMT
As to the kind of experiment: EMSA.

Data set [3] has as its target T1, SOX18-HMG (79 aa). Nature of the data set: X-ray crystal structure.
Data set [4] has as its target T4, ESRRB (DNA binding domain) (mouse, UniProt Q61539 100-186).
T4 sequence: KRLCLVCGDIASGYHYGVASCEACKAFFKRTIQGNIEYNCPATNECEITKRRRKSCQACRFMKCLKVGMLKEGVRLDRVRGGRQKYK
Nature of the data set: EMSA and competition.

Data set [5] concerns the target T3, OCT6-POU. Nature of the data set: EMSA competition.
The next data set deals with PAX9 (mouse, UniProt P47242 4-130). As to the kind of experiment: EMSA and competition.
Chain of PAX9 (P47242 4-130): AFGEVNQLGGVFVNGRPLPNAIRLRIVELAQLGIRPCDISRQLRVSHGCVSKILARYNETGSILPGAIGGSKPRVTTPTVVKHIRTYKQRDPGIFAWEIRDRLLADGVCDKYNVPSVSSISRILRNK

T1 sequence (P43680 77-155): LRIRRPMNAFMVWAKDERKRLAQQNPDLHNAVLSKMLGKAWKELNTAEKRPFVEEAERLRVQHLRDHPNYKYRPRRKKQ

B1: Prox1 15 bp (NAT decoy when unlabelled) (dsDNA)
DNA 1: CTAGCATTGTCTGGG
DNA 2: CCCAGACAATGCTAG
For the molecule B1, the Ka with SOX18-HMG (79 aa) [1] was 2.47e+06 M⁻¹.

B2: Cy5-Pore (dsDNA)
DNA 1: CACATTTGAAAGGCAAATGGAG
DNA 2: CTCCATTTGCCTTTCAAATGTG
As to B2, the binding result with BRN2-POU and with OCT6-POU [2] was “binds” in each case.

B3: Prox1 crystal DNA, 16 bp with CG overhangs (dsDNA)
DNA 1: CACTAGCATTGTCTGGG
DNA 2: GCCCAGACAATGCTAGT
For B3, in the data set with SOX18-HMG (79 aa) [3], the binding result is reported as “binds”.

B4: Esrrb element (Cy5/UL) (dsDNA)
DNA 1: TGGTGACCTTGGCT
DNA 2: AGCCAAGGTCACCA
Take B4: the binding result in data set [4] was “binds”.

B5: UL-More (dsDNA)
DNA 1: TCCTCATGCATATGCATGAGGA
DNA 2: TCCTCATGCATATGCATGAGGA
Consider B5, for which the binding result with OCT6-POU [5] was “binds”.

B6: Pax element (Cy5/UL) (dsDNA)
DNA 1: AAGCATTTTCACGCATGAGTGCACAG
DNA 2: CTGTGCACTCATGCGTGAAAATGCTT
For the molecule B6, the binding result in the data set with PAX9 is “binds”.
